Laboratory results published in patent publication US7838495B2, “Compositions and methods of use of EPB1, and ErbB3 binding protein” (University of Maryland, Baltimore, priority 2007, dated 2010).

Legend:
[1] = tested on: Androgen Regulated Genes; test: Microarray analysis of EBP1 and vector transfected C81 cells; assay type: cell-based, human; conditions: EBP1 transfected C81 cells vs vector control
Experimental: Microarray Analysis and Bioinformatics. RNA was prepared using the Trizol Reagent as previously described (8). Microarray processing and data analysis was performed at Genome Explorations (Nashville, Tenn.). U133A oligonucleotide arrays (Affymetrix) containing ˜33,000 full length annotated genes together with additional probe sets designed to represent EST sequences were used for the analysis. Only genes with a minimum expression level of 500 were included in this analysis. […] Oncomine analyses were performed by using Oncomine 3.0 (www.oncomine.org). Real Time Quantitative Reverse-Transcription PCR. Both cell culture samples and a commercial panel of cDNAs from normal prostate and prostate tumors (TissueScan, Origene, Rockville, Md.) were examined. The method of Nakanishi et al. (15) was used as previously described. Real-time quantitative RT-PCR was performed on the LightCycler® (Roche) platform. The following forward and reverse primers were selected using Primer Express software and synthesized by the Core Laboratory of University of Maryland School of Medicine: Ebp1, sense: 5′-GCA CGC CAA TAG AAG G-3′ (SEQ ID NO: 16) and antisense: 5′-GTA AAC GGC ATG GCA TC-3′ (SEQ ID NO: 17) kallikrein-2 sense: 5′-CAT CCA GTC TCG GAT TG-3′ (SEQ ID NO: 18) and antisense: 5′-CTC ATA TTG TAG AGC GGG T-3′ (SEQ ID NO: 19), TSPY, sense: 5′-CAGGGCTTCTCATTCCACTC-3′ (SEQ ID NO: 20) and antisense: 5′-CCATCATATTCAACTCAACAA CTGG-3′ (16; SEQ ID NO: 21), AGR2, sense: 5′-ATTGGCAGAGCAGTTTCTCC-3′ (SEQ ID NO: 22) and antisense, 5′-GAGCTGTATCTGCAGGTTCGT (17; SEQ ID NO: 23) 13-Actin, sense: 5′-GCTATCCAGGCTGTGCTATC-3′ (SEQ ID NO: 24) and antisense 5′-TGT CAC GCA CGA TTT CC-3′ (SEQ ID NO: 25). A SYBR®Green PCR Kit was used as per the manufacturer's instructions (Applied Biosystems, Foster City, Calif.) and the analyses were performed in duplicate or triplicate.

[2] = tested on: LNCaP cells; test: Growth response of LNCaP vector controls and EBP1 transfectants to DHT and bicalutamide; assay type: cell-based, human; conditions: LNCaP EBP1 transfectants (vector controls approximately 70%)
Experimental: Cell Growth Assays: To measure growth in complete media, cells (2×10^4) were seeded in triplicate in individual wells of 12-well tissue culture plates in RPMI-1640 with 10% FBS and cultured for the indicated number of days. Cells were trypsinized, stained with Trypan Blue (0.4%), and counted in a hemacytometer. For soft agar growth assays, increasing concentrations of cells (as indicated) were plated in 35 mm Petri dishes in complete media and 0.3% Difco Bacto Agar over an 0.5% agar layer. Colonies were counted after 10 days of incubation. For studies assessing the effect of dihydrotestosterone (DHT) on cell growth, cells (2×10^4) were plated in 12-well plates in complete media. After a 24-hour attachment period, the medium was replaced with steroid-free medium [phenol red-free RPMI 1640 and 5% charcoal-stripped FBS (Sigma)] for 48 hours. The final concentration of testosterone in the steroid-reduced media was less than 5 pM. After 48 hours of steroid depletion, cells were re-fed with fresh steroid-reduced medium with or without the indicated concentrations of DHT and/or bicalutamide (10 μM), and total cell numbers were assessed 7 days later.

B1: EBP1: ErbB3 binding protein (SEQ ID NO: 2), AR corepressor, here ectopically expressed in cancer cells by stable transfection of an expression plasmid (protein, listed as Homo sapiens)
chain: MSGEDEQQEQTIAEDLVVTKYKMGGDIANRVLRSLVEASSSGVSVLSLCEKGDAMIMEETGKIFKKEKEMKKGIAFPTSISVNNCVCHFSPLKSDQDYILKEGDLVKIDLGVHVDGFIANVAHTFVVDVAQGTQVTGRKADVIKAAHLCAEAALRLVKPGNQNTQVTEAWNKVAHSFNCTPIEGMLSHQLKQHVIDGEKTIIQNPTDQQKKDHEKAEFEVHEVYAVDVLVSSGEGKAKDAGQRTTIYKRDPSKQYGLKMKTSRAFFSEVERRFDAMPFTLRAFEDEKKARMGVVECAKHELLQPFNVLYEKEGEFVAQFKFTVLLMPNGPMRITSGPFEPDLYKSEMEVQDAELKALLQSSASRKTQKKKKKKASKTAENATSGETLEENEAGD
modifications: FLAG tag
**Q.** Which “Fold Decrease, AGR2” value [1] does the source give for B1 here?
**A.** Its value is 7.1.

**Q.** And the “Fold Decrease, Androgen regulated serine protease TMPRSS2” value [1]?
**A.** Its value is 4.0.

**Q.** And the “Fold Decrease, Prostate Cancer overexpressed POV” value [1]?
**A.** The value was 5.

**Q.** What about the “Fold Decrease, Prostate Differentiation Factor mRNA” value [1] of the same molecule?
**A.** Its value is 5.4.

**Q.** And the “Fold Decrease, Prostate Specific Antigen” value [1]?
**A.** Its value is 5.5.

**Q.** And the “Fold Decrease, Prostatic Kallikrein 2” value [1]?
**A.** The value was 5.4.

**Q.** What about the “Fold Decrease, TSPY” value [1] of the same molecule?
**A.** Its value is 9.5.

**Q.** What about the “growth inhibition by the withdrawal of androgens” value [2] of the same molecule?
**A.** The value was 60%.
